The values that follow come from publication PMC2749287.

The target of data set [1] is T1, VDR;RXRα (human;human, UniProt P11473;P19793 1-427;1-462, |). As to the kind of experiment: EMSA.
In data set [2] the target is T1, VDR;RXRα. Kind of data set: competition.

T1 sequence (P11473 whole entry, chain 1 of 2): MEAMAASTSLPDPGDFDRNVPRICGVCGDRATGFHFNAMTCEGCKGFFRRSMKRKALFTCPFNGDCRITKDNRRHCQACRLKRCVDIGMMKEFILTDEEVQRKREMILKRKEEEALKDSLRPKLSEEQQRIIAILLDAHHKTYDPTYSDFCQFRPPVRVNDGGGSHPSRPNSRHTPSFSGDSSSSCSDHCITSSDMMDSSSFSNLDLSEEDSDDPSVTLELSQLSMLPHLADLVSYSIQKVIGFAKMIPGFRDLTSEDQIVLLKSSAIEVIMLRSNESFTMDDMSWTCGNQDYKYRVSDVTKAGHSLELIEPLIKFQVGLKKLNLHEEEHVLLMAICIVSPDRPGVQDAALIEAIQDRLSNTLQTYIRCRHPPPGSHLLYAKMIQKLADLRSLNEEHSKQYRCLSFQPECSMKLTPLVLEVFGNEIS
T1 sequence (P19793 whole entry, chain 2 of 2): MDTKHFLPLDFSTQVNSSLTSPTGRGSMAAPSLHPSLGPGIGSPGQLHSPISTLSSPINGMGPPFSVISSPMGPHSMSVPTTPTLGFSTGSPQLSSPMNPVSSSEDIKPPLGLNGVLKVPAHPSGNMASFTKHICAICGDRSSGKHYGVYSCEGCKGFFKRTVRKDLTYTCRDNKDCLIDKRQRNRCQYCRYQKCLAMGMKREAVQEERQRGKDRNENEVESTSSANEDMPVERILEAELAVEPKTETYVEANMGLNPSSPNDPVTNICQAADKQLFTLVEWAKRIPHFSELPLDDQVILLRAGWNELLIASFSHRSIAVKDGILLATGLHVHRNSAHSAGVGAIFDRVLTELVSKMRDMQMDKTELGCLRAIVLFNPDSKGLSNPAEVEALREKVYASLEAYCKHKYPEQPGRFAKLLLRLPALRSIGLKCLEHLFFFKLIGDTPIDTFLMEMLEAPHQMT

B1: wild-type VDRE2 probe, hCYP24A1 promoter (dsDNA)
DNA 1: CGAAGCACACCCGGTGAACTCCGGGCTT
DNA 2: AAGCCCGGAGTTCACCGGGTGTGCTTCG
On to B1, for which the binding result with VDR;RXRα [1] is “binds”.

B2: unlabeled wild-type VDRE2 competitor (dsDNA)
DNA 1: CGAAGCACACCCGGTGAACTCCGGGCTT
DNA 2: AAGCCCGGAGTTCACCGGGTGTGCTTCG
Consider B2, for which the binding result with VDR;RXRα [2] is “binds”.
